Source: patent US20100254992A1 (published 2010)
Where a chain is given by its changes, count along the chain named.

T1: human MCP-2 (human, UniProt P80075 24-99)
T1 construct: also called CCL8
T1 sequence (looked up): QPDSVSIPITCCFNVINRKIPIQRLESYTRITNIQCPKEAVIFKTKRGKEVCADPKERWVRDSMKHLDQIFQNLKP

T2: human Eotaxin 3 (human, UniProt Q9Y258 24-94)
T2 sequence (looked up): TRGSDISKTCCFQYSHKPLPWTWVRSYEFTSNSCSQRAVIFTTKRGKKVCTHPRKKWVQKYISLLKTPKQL

T3: human Eotaxin 2 (human, UniProt O00175 27-104, limits assumed)
T3 sequence (looked up): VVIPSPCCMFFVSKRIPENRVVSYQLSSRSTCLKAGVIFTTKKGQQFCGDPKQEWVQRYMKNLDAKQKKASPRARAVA

B1: MOR03899 IgG1 (antibody, V domains shown)
VH: QVELVQSGAEVKKPGSSVKVSCKASGGTFSSYGISWVRQAPGQGLEWMGAINPLAGHTHYAQKFQGRVTITADESTSTAYMELSSLRSEDTAVYYCARYDGIYGELDFWGQGTLVTVSS
VL: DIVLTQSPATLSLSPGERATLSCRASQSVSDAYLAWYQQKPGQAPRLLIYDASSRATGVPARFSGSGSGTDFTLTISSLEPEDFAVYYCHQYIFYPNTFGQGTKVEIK
notes: Human IgG1; also called MOR3899 IgG1; MOR3899k IgG
B2: MOR03878 IgG1 (antibody, V domains shown)
VH: B1 VH
VL: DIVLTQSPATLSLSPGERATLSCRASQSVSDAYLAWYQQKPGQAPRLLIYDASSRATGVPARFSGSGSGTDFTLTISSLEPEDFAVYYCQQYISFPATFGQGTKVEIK
notes: Human IgG1; also called MOR3878 IgG1; MOR3878k IgG
B3: MOR03781 IgG1 (antibody, V domains shown)
VH: B1 VH with A50G, N52I, L54I, A55F, H57T, T58A, H59N
VL: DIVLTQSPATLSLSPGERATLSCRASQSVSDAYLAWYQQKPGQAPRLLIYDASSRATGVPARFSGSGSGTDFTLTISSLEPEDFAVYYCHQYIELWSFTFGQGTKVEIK
notes: Human IgG1; also called MOR3781 IgG1; MOR3781k IgG
B4: MOR03850 IgG1 (antibody, V domains shown)
VH: B1 VH
VL: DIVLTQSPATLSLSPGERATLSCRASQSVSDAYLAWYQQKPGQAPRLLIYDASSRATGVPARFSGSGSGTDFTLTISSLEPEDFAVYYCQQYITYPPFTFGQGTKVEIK
notes: Human IgG1; also called MOR3850 IgG1; MOR3850k IgG
B5: MOR03878 Fab (Fab, V domains shown)
VH: B1 VH
VL: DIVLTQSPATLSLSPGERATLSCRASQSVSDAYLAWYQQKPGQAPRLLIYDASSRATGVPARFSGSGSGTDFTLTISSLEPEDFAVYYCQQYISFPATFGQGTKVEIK
notes: MOR03471 cross-clone (3822 × 3794); Fab with C-terminal FLAG and 6x His tags; also called MOR3878; MOR3878k
B6: MOR03850 Fab (Fab, V domains shown)
VH: B1 VH
VL: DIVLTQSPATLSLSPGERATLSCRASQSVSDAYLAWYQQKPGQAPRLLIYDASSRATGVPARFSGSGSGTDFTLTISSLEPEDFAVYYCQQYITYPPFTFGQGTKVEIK
notes: MOR03471 cross-clone (3822 × 3819); Fab with C-terminal FLAG and 6x His tags; also called MOR3850; MOR3850k
B7: MOR03781 Fab (Fab, V domains shown)
VH: B1 VH with A50G, N52I, L54I, A55F, H57T, T58A, H59N
VL: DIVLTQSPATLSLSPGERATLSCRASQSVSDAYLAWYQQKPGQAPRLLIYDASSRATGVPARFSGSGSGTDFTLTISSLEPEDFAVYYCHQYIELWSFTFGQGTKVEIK
notes: MOR03471 derivative (L-CDR3); Fab with C-terminal FLAG and 6x His tags; also called MOR3781; MOR3781k
B8: MOR03899 Fab (Fab, V domains shown)
VH: B1 VH
VL: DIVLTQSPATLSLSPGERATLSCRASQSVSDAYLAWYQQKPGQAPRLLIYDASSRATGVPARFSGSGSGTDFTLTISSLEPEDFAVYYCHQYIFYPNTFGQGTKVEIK
notes: MOR03471 cross-clone (3822 × 3876); Fab with C-terminal FLAG and 6x His tags; also called MOR3899; MOR3899k
B9: MOR03754 Fab (Fab, V domains shown)
VH: QVQLVESGGGLVQPGGSLRLSCAASGFTFRSYGMSWVRQAPGKGLEWVSSIEHKWSGYATTYAASVKGRFTISRDNSKNTLYLQMNSLRAEDTAVYYCARFEFTPWTYFDFWGQGTLVTVSS
VL: DIELTQPPSVSVAPGQTARISCSGDNLGKKYVYWYQQKPGQAPVLVIYDDDNRPSGIPERFSGSNSGNTATLTISGTQAEDEADYYCQSYTAQSSASFGGGTKLTVL
B10: CNTO 888 (antibody, V domains shown)
VH: B1 VH with E3Q, A50G, N52I, L54I, A55F, H57T, T58A, H59N
VL: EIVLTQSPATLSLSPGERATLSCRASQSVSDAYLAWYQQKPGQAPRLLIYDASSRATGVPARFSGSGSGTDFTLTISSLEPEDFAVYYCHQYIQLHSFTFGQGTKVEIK
notes: Fully human IgG1 kappa
B11: MOR03849 IgG (antibody, V domains shown)
VH: B1 VH
VL: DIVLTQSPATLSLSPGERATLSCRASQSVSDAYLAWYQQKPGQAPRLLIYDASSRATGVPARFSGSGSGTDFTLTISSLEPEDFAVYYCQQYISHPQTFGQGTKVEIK
B12: MOR03885 IgG (antibody, V domains shown)
VH: B1 VH
VL: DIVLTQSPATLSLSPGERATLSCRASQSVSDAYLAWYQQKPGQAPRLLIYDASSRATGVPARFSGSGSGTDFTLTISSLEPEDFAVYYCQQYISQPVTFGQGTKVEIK

What follows are binders tested against T4, cynomolgus monkey MCP-1 (cynomolgus monkey, UniProt P61274 24-99) (assay: BioVeris solution equilibrium titration, IgG1, cyno MCP-1).
T4 construct: also called cyno MCP-1; cyno CCL-2
Description: (§1) Affinity determination in solution was basically performed as described in the literature (Friguet et al., 1985). In order to improve the sensitivity and accuracy of the SET method, it was transferred from classical ELISA to ECL based BioVeris technology (Haenel et al., 2005, accepted for publication in Analytical Biochemistry). 1 mg/ml goat-anti-human (Fab)₂ or goat-anti-mouse IgG, Fc fragment specific antibodies (Jackson Immuno Research) were labelled with BV-tag™ NHS-Ester (Bioveris Europe, Witney, Oxfordshire, UK) according to manufacturer's instructions. The experiments were carried out in polypropylene microtiter plates and PBS pH 7.4 with 0.5% BSA and 0.02% Tween 20 as assay buffer. Unlabeled antigen was diluted in 4ⁿ series: For human and cyno MCP-1 a concentration range of 10 pM to 40 nM and for cross-reactivity controls (Eotaxin and MCP-2) a concentration range of 40 pM to 160 nM was chosen. Wells without antigen were used to determine Smax values. After addition of 100 pM Fab or IgG (final concentration in 75 μL final volume), the mixture was incubated for 2 hours at RT. Subsequently a mixture of 25 μl Dynabeads (0.4 mg/ml M-280 Streptavidin, DYNAL, Hamburg), coated with 0.25 μg/ml biotinylated MCP-1 (K69) and BV-tag labeled detection antibody in a final dilution of 1:4000 for anti-human Fab or 1:2000 for anti-mouse IgG were added per well.
(§2) Solution Equilibrium Titration Using BioVeris. As an alternative method for sensitive KD determinations, the solution equilibrium titration (SET) using BioVeris technology was performed. Monovalent dissociation constants were calculated by means of appropriate fit models for Fab and IgG. This method was suitable for affinity measurement and cross-reactivity studies. All selected 16 binders were analyzed by solution equilibrium titration (SET) using BioVeris (Table 5 and Table 6) and these affinity values were regarded as the final affinity values.

T4 sequence (P61274 24-99 limits assumed): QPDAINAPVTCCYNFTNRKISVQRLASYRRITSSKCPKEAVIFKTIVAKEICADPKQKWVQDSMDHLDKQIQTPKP

Row | Kd | Binder
1 | 0.36 nM | B1
2 | 0.23 nM | B2
3 | 0.016 nM | B3
4 | 0.021 nM | B4

What follows are binders tested against T5, Human Monocyte Chemoattractant Protein-1 (MCP-1) (human, UniProt P13500 24-99, 125I label on the radioligand form; letters are the unlabelled wild-type protein) (assay: 125I-MCP-1 binding to CCR2 on THP-1 cells, radioligand competition).
T5 construct: also called CCL-2; CCL2
T5 sequence (P13500 24-99 limits assumed): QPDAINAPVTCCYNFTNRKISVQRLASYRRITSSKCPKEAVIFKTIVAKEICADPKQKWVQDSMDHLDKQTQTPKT

Row | IC50 | Binder
5 | 0.11 nM | B5
6 | 0.16 nM | B6
7 | 0.05 nM | B1
8 | 0.03 nM | B2
9 | 0.02 nM | B3
10 | 0.05 nM | B4
11 | 0.18 nM | B7
12 | 0.13 nM | B8

The binders below were run against T4, cynomolgus monkey MCP-1 (assay: BioVeris solution equilibrium titration, Fab, cyno MCP-1).
Description: as §1, §2

Row | Kd | Binder
13 | 0.32 nM | B5
14 | 0.04 nM | B6
15 | 0.49 nM | B8

What follows are binders tested against T1, human MCP-2 (assay: 125I-MCP-2 binding to CCR2 on Thp-1 cells, radioligand competition).

Row | IC50 | Binder
16 | ≥ 2000 nM | B9

What follows are binders tested against T5, Human Monocyte Chemoattractant … (assay: cell-based or functional assay).

Row | Inhibition of Ca2+ Mobilization IC50 | Binder
17 | 20.2 nM | B5
18 | 28.4 nM | B6
19 | 5.85 nM | B1
20 | 6.7 nM | B2
21 | 10.9 nM | B3
22 | 9.47 nM | B4
23 | 21.8 nM | B7
24 | 17.5 nM | B8

The binders below were run against T6, human Eotaxin 1 (human, UniProt P51671 24-97) (assay: BIAcore).

Row | binding result | Binder
25 | no binding | B10

Each binder was assayed against T7, human MCP-4 (human, UniProt Q99616 24-98, limits assumed) (assay: BIAcore).
T7 construct: also called CCL13

Row | binding result | Binder
26 | no binding | B10

Each binder was assayed against T8, human MCP-3 (human, UniProt P80098 24-99) (assay: BIAcore).
T8 construct: also called CCL7
T8 sequence (P80098 24-99 limits assumed): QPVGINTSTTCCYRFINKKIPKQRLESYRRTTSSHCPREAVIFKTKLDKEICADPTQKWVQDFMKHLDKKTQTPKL

Row | binding result | Binder
27 | no binding | B10

These binders were tested against T2, human Eotaxin 3 (assay: BIAcore).

Row | binding result | Binder
28 | no binding | B10

The binders below were run against T3, human Eotaxin 2 (assay: BIAcore).

Row | binding result | Binder
29 | no binding | B10

Each binder was assayed against T5, Human Monocyte Chemoattractant … (assay: IGEN (BioVeris), MCP-1 Kd).
Description: as §1, §2

Row | Kd | Binder
30 | 0.32 nM | B5
31 | 0.04 nM | B6
32 | 0.34 nM | B1
33 | 0.27 nM | B2
34 | 0.02 nM | B3
35 | 0.01 nM | B4
36 | 0.03 nM | B7
37 | 0.81 nM | B8

Each binder was assayed against T5, Human Monocyte Chemoattractant … (assay: BioVeris solution equilibrium titration, IgG1, rh MCP-1).
Description: as §1, §2

Row | Kd | Binder
38 | 0.34 nM | B1
39 | 0.27 nM | B2
40 | 0.02 nM | B3
41 | 0.011 nM | B4

Each binder was assayed against T6, human Eotaxin 1 (assay: Biacore, IgG capture mode).

Row | binding result | Binder
42 | no binding (tested: 100 nM) | B11
43 | no binding (tested: 100 nM) | B3
44 | no binding (tested: 100 nM) | B12

Each binder was assayed against T1, human MCP-2 (assay: Biacore, IgG capture mode).

Row | binding result | Binder
45 | no binding (tested: 100 nM) | B11
46 | no binding (tested: 100 nM) | B12

What follows are binders tested against T7, human MCP-4 (assay: Biacore, IgG capture mode).

Row | binding result | Binder
47 | no binding (tested: 100 nM) | B11
48 | no binding (tested: 100 nM) | B1
49 | no binding (tested: 100 nM) | B2
50 | no binding (tested: 100 nM) | B3
51 | no binding (tested: 100 nM) | B4
52 | no binding (tested: 100 nM) | B12

Each binder was assayed against T8, human MCP-3 (assay: Biacore, IgG capture mode).

Row | binding result | Binder
53 | no binding (tested: 100 nM) | B11
54 | no binding (tested: 100 nM) | B1
55 | no binding (tested: 100 nM) | B2
56 | no binding (tested: 100 nM) | B3
57 | no binding (tested: 100 nM) | B4
58 | no binding (tested: 100 nM) | B12

These binders were tested against T2, human Eotaxin 3 (assay: Biacore, IgG capture mode).

Row | binding result | Binder
59 | no binding (tested: 100 nM) | B11
60 | no binding (tested: 100 nM) | B1
61 | no binding (tested: 100 nM) | B2
62 | no binding (tested: 100 nM) | B3
63 | no binding (tested: 100 nM) | B4
64 | no binding (tested: 100 nM) | B12

Each binder was assayed against T3, human Eotaxin 2 (assay: Biacore, IgG capture mode).

Row | binding result | Binder
65 | no binding (tested: 100 nM) | B11
66 | no binding (tested: 100 nM) | B1
67 | no binding (tested: 100 nM) | B2
68 | no binding (tested: 100 nM) | B3
69 | no binding (tested: 100 nM) | B4
70 | no binding (tested: 100 nM) | B12

What follows are binders tested against T5, Human Monocyte Chemoattractant … (assay: BioVeris solution equilibrium titration, Fab, rh MCP-1).
Description: as §1, §2

Row | Kd | Binder
71 | 0.32 nM | B5
72 | 0.04 nM | B6
73 | 0.03 nM | B7
74 | 0.81 nM | B8

What follows are binders tested against T4, cynomolgus monkey MCP-1 (assay: BioVeris, Cyno MCP-1 Kd).
Description: as §1, §2

Row | Kd | Binder
75 | 0.32 nM | B5
76 | 0.04 nM | B6
77 | 0.36 nM | B1
78 | 0.23 nM | B2
79 | 0.02 nM | B3
80 | 0.01 nM | B4
81 | 0.01 nM | B7
82 | 0.49 nM | B8
